Patent publication US20110060580A1 (published 2011)

B1: short co-activator peptide (KDHQLLRYLLDKD) (Seq. Id. No. 3) from SRC-1 (peptide)
peptide: KDHQLLRYLLDKD
notes: 13-residue peptide from SRC-1
B2: human LXRβ-LBD (liver X receptor beta ligand binding domain, amino acids 213-461 of Seq. Id. No. 1) (receptor)
chain: GEGEGVQLTAAQELMIQQLVAAQLQCNKRSFSDQPKVTPWPLGADPQSRDARQQRFAHFTELAIISVQEIVDFAKQVPGFLQLGREDQIALLKASTIEIMLLETARRYNHETECITFLKDFTYSKDDFHRAGLQVEFINPIFEFSRAMRRLGLDDAEYALLIAINIFSADRPNVQEPGRVEALQQPYVEALLSYTRIKRPQDQLRFPRMLMKLVSLRTLSSVHSEQVFALRLQDKKLPPLLSEIWDVHE
notes: The His tag was removed by thrombin before crystallization; Id; No. 1; Each crystal also held a small-molecule agonist; also called LXR-LBD; hLXRbeta213G-460E
B3: short co-activator peptide (ERHKILHRLLQEG) (Seq. Id. No. 4) from SRC-1 (peptide)
peptide: ERHKILHRLLQEG
notes: 13-residue peptide from SRC-1

Tests used:
[1] = biological target: B2; assay: X-ray co-crystal structure (Example 1, space group P43)
Experimental: (§1) Protein used for crystallization of LXRβ-LBD together with 2-(4-{[2-(3-Chloro-phenyl)-5-methyl-oxazol-4-ylmethyl]-ethyl-amino }-phenyl)-1,1,1,3,3,3-hexafluoro-propan-2-ol has been purified as described above. The protein was incubated with ligand in a 12-fold molar excess for 2 hours at room temperature. A short co-activator peptide ([…]) (Seq. Id. No. 3) from SRC-1 was added in 12-fold molar excess and incubation continued overnight at 4 ° C. Prior to crystallization experiments the protein was centrifuged at 20000× g. The crystallization droplets were set up at 22 ° C. by mixing 1.5 μl of protein solution with 0.5 μl reservoir solution in vapour diffusion hanging drop experiments. Crystals appeared out of 0.2 M (NH₄)₂SO₄, 25% PEG 3350 after 1 day and grew to final size of 0.15 mm×0.15 mm×0.05 mm within 2 days.
(§2) Crystals were harvested with paraffin oil as cryoprotectant and then flash frozen in a 100 K N2 stream. Diffraction images were collected at a temperature of 100 K at the beamline X06SA of the Swiss Light Source and processed with the programs DENZO and […] yielding data to a resolution of 3.2 Å. Standard crystallographic programs from the CCP4 software suite were used to determine the structure by molecular replacement using an in-house LXRβ-LBD structure as search model. Refinement and model building cycles were performed with REFMAC and MOLOC, respectively (Table 1).

[2] = biological target: the molecule itself; assay: X-ray co-crystal structure (Example 1); homodimer
Experimental: as §1, §2

[3] = biological target: B2; assay: X-ray co-crystal structure (Example 3, space group P1)
Experimental: Protein used for crystallization of LXRβ-LBD together with - (R,S)-Benzenesulfonyl-(6chloro-2,3,4,9-tetrahydro-1H-carbazol-2-yl)-fluoro-acetic acid methyl ester has been purified as described above. The protein was incubated with ligand in a 15-fold molar excess for 2 hours at room temperature. A short co-activator peptide ([…]) (Seq. Id. No. 4) from SRC-1 was added in 3-fold molar excess and incubation continued overnight at 4 ° C. Prior to crystallization experiments the protein was concentrated to 12 mg/ml and centrifuged at 20000 ×g. The crystallization droplet was set up at room temperature by mixing 1.5 μl of protein solution with 0.5 μl reservoir solution in vapour diffusion hanging drop experiments. Crystals appeared out of 0.1 M Bis-Tris pH 5.5, 0.2 M (NH⁴⁾²SO₄, 25% PEG 3350 after 1 day and grew to final size of 0.2 mm×0.1 mm×0.05 mm within 2 days.
as §2, with “N₂” for “N2”, “2.3” for “3.2”, “LXR-LBD” for “LXRβ-LBD”, “Refinement and model building cycles were performed with REFMAC and MOLOC, respectively (Table 1).” left out

Binder: B1
- binding result [1]: binds

Binder: B2
- binding result [2]: binds

Binder: B3
- binding result [3]: binds
